Entries after “also recorded” stand apart in the source; their conditions may differ.
B1: MFK12: a peptide having mdhFas-1 (as a basic structure) linked to an RGDSP (SEQ ID NO: 9) peptide (protein)
chain: QAMPPEELNKLLANAKELTNILKYHIGDEILVSGGIGALVRLKSLQGDKLEVSSKNNVVSVNKEPVAETDIMEFGGRGDSPDDDDDLE
modifications: MFK12
B2: hsdhFas-1: peptide prepared by removing H1 and H2 regions from the fourth fas-1 domain of human βig-h3 (protein)
chain: RALPPRERSRLLGDAKELANILKYHIGDEILVSGGIGALVRLKSLQGDKLEVSLKNNVVSVNKEPVAEPDIM
modifications: hsdhFas-1
notes: peptide prepared by removing H1 and H2 regions from the fourth fas-1 domain of human βig-h3

Assays:
[1] = test system: collagen-induced arthritis (CIA) mouse model; experiment: Arthritis therapeutic effect in CIA mouse (clinical arthritis index); type: in vivo
Description: A CIA mouse model having the similar characteristic to that of human rheumatoid arthritis was prepared according to the description in a known literature (Protocol for the successful induction of collagen-induced arthritis (CIA) and collagen antibody-induced arthritis (CAIA) in mice. Chondrex, Redmond, Wash.): Bovine type 2 collagen 100 ug was mixed with Freund's complete adjuvant, and hypodermically inoculated into the tail of the mouse. After 3 weeks, bovine type 2 collagen 100 ug was mixed with Freund's incomplete adjuvant, and inoculated again into the tail of the mouse. Then, the mouse was used in the experiment.
In order to find out the therapeutic effect of arthritis in a CIA model, for four weeks from the onset (the 23rd day) of arthritis following the second injection of the bovine type 2 collagen, MFK23 or MFK24 was daily injected into the abdominal cavity in doses of 0.1 mg/kg, 1 mg/kg, 10 mg/kg and 30 mg/kg. As a control group, the same amount of PBS was injected into the abdominal cavity. From the 23rd day to the 50th day, by using a Clinical arthritis index, the severity of arthritis was daily determined. The determination was based on the following data.
0; no symptom, 1; edema in one articulation or light edema, 2; severe edema in 2 or more articulations, 3; severe edema in most articulations, 4; severe edema in the whole of legs.

[2] = Toxicity test in CIA mouse (weight, serologic test, blood test); conditions: CIA mouse, 22nd day vs 48th day
Description: On the 48th day, a serologic test and a blood test were carried out.

[3] = test system: mouse fibroblast (NIH3T3); experiment: βig-h3-mediated cell adhesion test, NIH3T3; type: cell-based; conditions: NIH3T3, βig-h3 5 ug/ml coat
Description: (§1) Human βig-h3 was introduced into a 96-well plate at a concentration of 5 ug/ml, and coated for 14 hours at 4° C. In DMEM+0.5% BSA (Bovine Serum Albumin) culture medium, human fibroblast (NIH3T3) was introduced, and hsdhFas-1 peptide at concentrations was injected thereto, followed by mixing. The resultant mixture was cultured at 37° C. for 30 minutes, and plated on a coated well. It was cultured for 2 hours, and washed with PBS (phosphate buffered saline) so as to remove unattached cells, and then added with a substrate (4-Nitrophenyl N-acetyl-β-D-glucosaminide, Sigma, U.S.) to be activated by β-N-acetylglucosaminidase within the cell, followed by culturing at 37° C. for 1 hour. Then, a glycine EDTA solution (0.5M EDTA, 50 mM glycine, pH 10.4) was added thereto, and the coloring extent according to the number of attached cells was measured by absorbance.
Also, a structurally modified peptide of a fas-1 domain of mouse βig-h3 was synthesized as a recombinant peptide (hereinafter, referred to as ‘mdhFas-1peptide’, see FIG. 2), and a mouse cell line, that is, NIH3T3 cell line, was used to test the inhibiting effect by mdhFas-1 peptide on adhesion and migration of a Synovial membrane cell in the same manner as that in the test using human βig-h3.
as §1, with “βig-h3” for “Human βig-h3”, “mouse” for “human”, “MFK23, MFK24, MFK25 or MFK27” for “hsdhFas-1 peptide”

ICAM-1 and RANKL = experiment: Immunoblot of ICAM-1 and RANKL in CIA mouse model; type: in vivo; conditions: 30 mg/kg, FIG. 27
[4] = test system: TNF-a, RANKL, IL-1β, CCL-2, MMP-1, MMP-3, IL-6, VCAM-1; experiment: Semiquantitative reverse transcription PCR of inflammatory mediators in CIA mouse foot tissue; type: in vivo; conditions: CIA mouse, 30 mg/kg, FIG. 26
Description: The distribution of inflammation in the foot tissue may be somewhat differently observed according to the regions, and its quantitative research is difficult. Thus, in the hind leg of a mouse CIA model treated with MFK24, the change in inflammatory mediators according to the onset of arthritis was measured by a semiquantitative reverse transcription PCR method using a Taqman probe, as described below.
From a mouse CIA model, a foot tissue was separated, and its skin was removed. The remaining tissue was grinded by a tissue homogenizer, and an extraction reagent (Easy-spim™, Intron) was used to extract all RNAs. They were quantified, and for 7 μg of RNA, a reverse transcriptase reaction was carried out by using AMV reverse transcriptase (Roche, 0.5 ul), oligo dT (Roche, 1 ul), and 10 mM dNTP (Takara, 2 ul) RNase inhibitor (Roche, 0.1 ul). For TNF-a, RANKL, IL-1β, CCL-2, MMP-1, MMP-3, IL-6, VCAM-1 and 18S RNA of a mouse, semiquantitative PCR was performed by using primers (Bioneer, Daejeon) and a Taqman probe (Roche, Germany) in LC480 (Roche, Germany), so as to determine the number of transcripts. Quantitative analysis of the transcripts was performed through comparison with 18S RNA transcripts. The primer pairs for the semiquantitative PCR are noted in [table8].

NIH3T3 = experiment: βig-h3-mediated cell migration test (transwell), NIH3T3; type: cell-based, mouse; conditions: 7 hours
Description: In the lower compartment of a transwell filter having an 8 um hole size allowing cells to be migrated, βig-h3 was cultured at 4° C. for 12 to 14 hours and coated. In DMEM+0.5% BSA culture medium, NIH3T3 was introduced, and administered with MFK23, MFK24 or MFK25 at concentrations, followed by mixing. The resultant mixture was cultured at 37° C. for 30 minutes, inoculated into the upper chamber of the coated well, and cultured for 7 hours at 37° C. Then, the cells migrated to the lower compartment of the filter were fixed by paraformaldehyde, and strained by a crystal violet. The cells […] remaining in the upper chamber were wiped out and the number of cells migrated to the lower compartment was microscopically counted.

[5] = test system: foot tissue of CIA mouse (Synovial membrane, cartilage, bones; CD31, ICAM-1); experiment: Histologic and immunohistochemistry test on foot tissue of CIA mouse; type: in vivo; conditions: CIA mouse, 50th day
Description: In order to determine the action mechanism of an arthritis therapeutic effect in a CIA model, on the 50th day following the second injection of the bovine type 2 collagen (after 4 weeks from the onset (the 23rd day) of arthritis following the second injection of the bovine type 2 collagen), foot tissues of treatment groups were separated and subjected to histologic analysis. Then, in the tissues, a change in the expression of inflammatory mediators was examined.
A tissue sample was prepared by the following process. Skin on the foot tissue was removed. Then, the tissue was fixed in 10% formalin solution for 2 days, and demineralized in 10% EDTA solution. The demineralized tissue was subjected to a dehydrating process and a clearing process, paraffin-embedded, and was made into a fragment with a thickness of 3 um by a microtome. The tissue fragment was deparaffinized and re-dehydrated by 100% xylene and ethanol, and then non-specific peroxidase within the tissue was blocked by a solution of 0.3% hydrogen peroxide dissolved in 100% methanol.
In order to carry out an immunohistochemistry test, binding of non-specific protein was blocked by 5% BSA. Then, the tissue was cultured, together with each primary antibody (as endothelial cell markers, an antibody to CD31, and an antibody to ICAM-1 (intercellular adhesion molecule-1)), at 4° C. for 12 to 14 hours, and washed with washing buffer (0.1% BSA, 0.2% gelatin, 0.05% saponin). It was cultured together with a secondary antibody labeled with biotin at room temperature for 30 minutes, was washed, reacted with Vectastatin ABC kit (Vector Laboratories, U.S.), and was mounted with Eukitt mounting media (Fluka, Germany) for observation.

[6] = test system: human fibroblast (NIH3T3); experiment: Cell adhesion test on human βig-h3 coated plate (hsdhFas-1); type: cell-based; conditions: human βig-h3 5 ug/ml coat, FIG. 3
Description: as §1

| Molecule | arthritis inhibition (clinical arthritis index) ([1]; 10 mg/kg daily) | arthritis inhibition (clinical arthritis index) ([1]; 30 mg/kg daily) | arthritis inhibiting effect (clinical arthritis index), in words ([1]; daily into the abdominal cavity) | body weight change compared to control group [2] | βig-h3-mediated cell adhesion [3] | expression levels of ICAM-1 and RANKL vs arthritis control group (ICAM-1 and RANKL) | expression levels of TNF-a, IL-6, IL-1β, ICAM-1, and RANKL vs arthritis control group [4] | βig-h3-mediated cell migration (NIH3T3) | proliferation of Synovial membrane tissue cells ([5]; 10 mg/kg) | state of the articulation region ([5]; 10 mg/kg) | vascularization induction and cell adhesion protein expression (CD31, ICAM-1) ([5]; 10 mg/kg) | proliferation of Synovial membrane tissue cells ([5]; 30 mg/kg) | shape of the foot tissue ([5]; 30 mg/kg) | vascularization induction and adhesion protein expression (CD31, ICAM-1) ([5]; 30 mg/kg) | βig-h3-mediated adhesion [6] |
| --- | --- | --- | --- | --- | --- | --- | --- | --- | --- | --- | --- | --- | --- | --- | --- |
| B1 | about 27% | about 60% | concentration-dependently inhibited | abnormal findings in the weight change were not observed | inhibited the adhesion and migration of a cell even at a lower concentration than that in Comparative Example 1; also recorded: concentration-dependently inhibited | reduced levels | reduced levels | inhibited the adhesion and migration of a cell even at a lower concentration than that in Comparative Example 1; also recorded: concentration-dependently inhibited | hyper-proliferated | the articulation region was destroyed | increased as much as that in the control group | inhibited compared to that in the control group | nearly normal | reduced | – |
| B2 | – | – | – | – | – | – | – | concentration-dependently inhibited | – | – | – | – | – | – | concentration-dependently inhibited |

Reference: US9605038B2, “Fusion peptide comprising dhFas-1 domain and MMP substrate and use thereof for preventing and treating rheumatoid arthritis” (Kyungpook National University Industry-Academic Cooperation …, priority 2010, dated 2017)
